According to patent US11015206B2, “Compositions and methods comprising sequences having hydroxyphenylpyruvate dioxygenase (HPPD) activity” (PIONEER HI-BRED INTERNATIONAL, INC., priority 2014, dated 2021):
Residue numbers refer to the chain shown, from its start.

Tested on: 4-hydroxyphenylpyruvate dioxygenase (HPPD)
Experiment: HPPD activity coupled assay with HGD; substrate saturation kinetic parameters (kcat, KM)
Format: biochemical, Z. mays
Method in brief: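 Coupled continuous assay: His-tagged HPPD (5 to 240 nM, E. coli-expressed, Ni-NTA-purified) with 50 nM P. aeruginosa HGD in 25 mM Hepes pH 7, 2 mM ascorbate, 10 μM FeSO4; maleylacetoacetate followed at 320 nm. KM and Vmax from Lineweaver-Burke fits over 3.33–100 μM HPP.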

[1] = Table 2, E. coli purified proteins
[2] = Table 6, single substitutions in SEQ ID NO:2
[3] = substrate saturation kinetic analysis

B1: Z. mays wt: maize wild-type HPPD, SEQ ID NO:1 (glycine for proline at position 2) (protein)
chain: MGPTPTAAAAGAAVAAASAAEQAAFRLVGHRNFVRFNPRSDRFHTLAFHHVELWCADAASAAGRFSFGLGAPLAARSDLSTGNSAHASLLLRSGSLSFLFTAPYAHGADAATAALPSFSAAAARRFAADHGLAVRAVALRVADAEDAFRASVAAGARPAFGPVDLGRGFRLAEVELYGDVVLRYVSYPDGAAGEPFLPGFEGVASPGAADYGLSRFDHIVGNVPELAPAAAYFAGFTGFHEFAEFTTEDVGTAESGLNSMVLANNSENVLLPLNEPVHGTKRRSQIQTFLDHHGGPGVQHMALASDDVLRTLREMQARSAMGGFEFMAPPTSDYYDGVRRRAGDVLTEAQIKECQELGVLVDRDDQGVLLQIFTKPVGDRPTLFLEIIQRIGCMEKDEKGQEYQKGGCGGFGKGNFSQLFKSIEDYEKSLEAKQAAAAAAAQGS
modifications: Zea mays
- Km [1]: 6.4 µM
- kcat [1]: 3.65 s⁻¹
- Km (Table 6): 6.4 µM
- kcat [2]: 3.65 s⁻¹
- Km [3]: 6.41 µM
- kcat [3]: 3.65 s⁻¹
- kcat (text b374): about 220 min^−1

B2: R7-9070: shuffled maize HPPD, Round 7, variant 9070 (SEQ ID NO:2); backbone for saturation mutagenesis (protein)
chain: MGPTPTATAAGAAVAAASAAEQAAFRLVGHRNFVRFNPRSDRFQTLAFHHVELWCADAASAAGRFSFALGVPLAARSDLSTGNSAHASLLLRSGSLSLLFTAPYAHGADAATAALPSFSAAAARRFAADHGLAVRAVALRVADAEDAFRASVAAGARPAFGPVDLGRGFRLAEVELYGDVVLRYVSYPDGAAGEPFLPGFEGVASPGAADYGLSRFDHIVGNVPELAPAAAYMAGFTGFHEFAEFTTEDVGTTESGLNSMALANNSENVLLPLNEPVHGTKRRSQIQTFLDHHGGPGVQHIALASDDVLRTLREMRARSAMGGFEFLPPPLSDYYDGVRRCAGDVLTEAQINECQELGVMVDRDDQGVLLQIFTKPVGDRPTFFLEIIQRIGCMEKDEKGQEYQKGGCGGFGKGNFGQLFKSIEDYEKSLEAKQAAAAATAQGS
modifications: Zea mays variant form created by artificial means.
notes: backbone for saturation mutagenesis
- Km [1]: 2.9 µM
- kcat [1]: 1.48 s⁻¹
- Km (Table 6): 2.35 µM
- kcat [2]: 0.918 s⁻¹
- Km [3]: 2.91 µM
- kcat [3]: 1.48 s⁻¹

B3: P056028-G-01 (protein)
chain: B2 chain with Y211L, S214N, R340K, Q366E, A432K, Q434R
modifications: Zea mays variant form created by artificial means.
- Km [3]: 2.06 µM
- kcat [3]: 0.69 s⁻¹

B4: P056028-A-01 (protein)
chain: B2 chain with Q366E, Q434R
modifications: Zea mays variant form created by artificial means.
- Km [3]: 2.49 µM
- kcat [3]: 1.21 s⁻¹

B5: P056028-G-01R (protein)
chain: B2 chain with Y211L, S214N, R340K, Q366E, M394R, A432K, Q434R
modifications: Zea mays variant form created by artificial means.
- Km [3]: 2.02 µM
- kcat [3]: 1.18 s⁻¹

B6: P056028-D-03 (protein)
chain: B2 chain with L182M, S214N, Q366E
modifications: Zea mays variant form created by artificial means.
- Km [3]: 2.08 µM
- kcat [3]: 0.737 s⁻¹

B7: P056028-A-03 (protein)
chain: B2 chain with A191G, Y211L, Q366E, A432R, Q434R
modifications: Zea mays variant form created by artificial means.
- Km [3]: 2.98 µM
- kcat [3]: 1.05 s⁻¹

B8: 9070Q366E (protein)
chain: B2 chain with Q366E
modifications: Zea mays variant form created by artificial means.
- Km [3]: 1.57 µM
- kcat [3]: 0.513 s⁻¹

B9: P056028-B-02 (protein)
chain: B2 chain with P206S, E356K, Q366E, K428R, A438V
modifications: Zea mays variant form created by artificial means.
- Km [3]: 3 µM
- kcat [3]: 0.978 s⁻¹

B10: P056028-B-09 (protein)
chain: B2 chain with G337D, Q366E, M394V, Q434R
modifications: Zea mays variant form created by artificial means.
- Km [3]: 3 µM
- kcat [3]: 1.55 s⁻¹
